{"source": "patent US20020115613A1", "about": "“Treatment of prostate cancer” (priority 2001, published 2002)", "molecules": {"B1": {"name": "Tumor necrosis factor α—Related Apoptosis Inducing Ligand (protein, UniProt P50591 1-281, looked up)", "Tumor necrosis factor ligand …": "MAMMEVQGGPSLGQTCVLIVIFTVLLQSLCVAVTYVYFTNELKQMQDKYSKSGIACFLKEDDSYWDPNDEESMNSPCWQVKWQLRQLVRKMILRTSEETISTVQEKQQNISPLVRERGPQRVAAHITGTRGRSNTLSSPNSKNEKALGRKINSWESSRSGHSFLSNLHLRNGELVIHEKGFYYIYSQTYFRFQEEIKENTKNDKQMVQYIYKYTSYPDPILLMKSARNSCWSKDAEYGLYSIYQGGIFELKENDRIFVSVTNEHLIDMDHEASFFGAFLVG", "notes": "281 amino acid type II transmembrane protein of the tumor necrosis factor α family; purchased from Biomol"}}, "key": {"prostate cancer cells": {"tested_on": "prostate cancer cells", "conditions": "cited from earlier work"}, "LNCaP cells": {"tested_on": "LNCaP cells", "conditions": "cited from earlier work"}, "LNCaP C4-2 cells": {"tested_on": "LNCaP C4-2 cells", "assay": "Western blotting of death receptors, caspases, Bid, cytochrome c, Akt", "type": "cell-based", "conditions": "15 min, FIG. 8"}, "PC3AR cells [1]": {"tested_on": "PC3AR cells", "assay": "Induction of apoptosis / cell survival (FIG. 1E, 6A)", "type": "cell-based", "description": "Two methods were used to measure induction of apoptosis by drug treatment: the MTT assay and the Apoptosense assay. The MTT assay measures mitochondrial enzyme activity and is indicative of the number of surviving cells. The Apoptosense assay is an ELISA, which utilizes M30 antibody to recognize the C-terminal domain (amino acids 387-396) of cytokeratin 18 that is exposed in apoptotic cells after cleavage by caspases.\nCells were seeded in 96-well plates (6000 cells/well) and treatment was started 24 hr after seeding the cells. After completion of the treatment, cells were incubated at 37° C. with the MTT reagent for 3 hr and processed according to manufacturers instructions (Promega Corporation, Madison, Wis.). Color development was measured at 490 nm on a Spectra MAX 340 microplate reader (Molecular Devices, Menlo Park, Calif.)."}, "PC3AR cells [2]": {"tested_on": "PC3AR cells", "assay": "Western blotting of death receptors, caspases, Bid, NFκB, XIAP", "type": "cell-based", "method": "(§1) Prostate cancer cell lines, PC3Neo and PC3AR were provided by Dr. K. Burnstein, University of Miami School of Medicine, Miami, Fla. PC3AR cells are a clonal cell line derived by stable transfection of PC3 with a full-length human AR cDNA (Dai, J. L., et al., Steroids, 61, 531-539, 1996). PC3Neo cells were stably transfected with neomycin vector alone. Cells were grown in RPMI 1640 with 5% FBS (Hyclone, Logan, Utah), 100 units/ml penicillin, 100 μg/ml streptomycin, 0.25 μg/ml fungizone and G418 (350 μg/ml) to select for neomycin-resistant cells. In experiments using antiandrogens, cells were maintained in 5% DCC stripped serum for at least 48 hr before treatment with hydroxyflutamide (Sigma Chemical Co., St. Louis, Mo.). The medium and all the drugs were replaced every two days. Cells were treated with 200 ng/ml, 400 ng/ml or 600 ng/ml of TRAIL (Biomol Research Laboratories, Inc, Plymouth Meeting, Pa.) for 2, 4, 6, 8, 16 and 20 hr. Cells were treated with 5 μM hydroxyflutamide for 5 days before the commencement of treatment with 400 ng/ml TRAIL.\n(§2) Cells were harvested by trypsinization, washed in 1×PBS and cell pellets resuspended in lysis buffer (100 mM Tris-HCl pH 8.0, 0.1% Triton X 100 and protease inhibitor cocktail from Roche Diagnostic Corporation, Indianapolis, Ind.). Cells were incubated over ice for 30 min and centrifuged at 10,000 g at 4° C. for 10 min. The supernatant was collected and the protein concentration estimated using Bio-Rad protein reagent (Bio-Rad Laboratories, Hercules, Calif.).\n(§3) Proteins (50 μg, unless stated otherwise) were separated on NuPAGE 10% Bis-Tris gels (Novex pre-cast mini gels, InVitrogen, Carlsbad, Calif.) at 100 volts for 1 hour in the presence of 1×MES-SDS running buffer (InVitrogen, Carlsbad, Calif.). Separated proteins were transferred to (PVDF) membranes (Bio-Rad Laboratories, Hercules, Calif.) at 42 volts for 2.5 hr using a Novex XCell II blotting apparatus in MES transfer buffer in the presence of NuPAGE antioxidant. Transfer of the proteins to the polyvinylidene difluoride (PVDF) membrane was confirmed by staining with Ponceau S (Sigma, St. Louis, Mo.). The blots were blocked in 5% non-fat dry milk in TBS, washed twice for 10 min each with TBS containing 0.1% Tween-20 and incubated for 2 hr at RT with primary antibody diluted in TBS containing 0.5% milk.\n(§4) The following antibodies were used in the immunoblots: DR4, DR5 and cytochrome c (Imgenex, San Diego, Calif.), BID (BioSource International, Camarillo, Calif.), caspases-8, -9, and Akt (Cell Signaling Technology, Beverely, Mass.), caspase-3 (BD Pharmingen, San Diego, Calif.) Iκβ and XIAP (Cell Signaling Technology, Beverly, Mass.), cFLIP (StressGen Biotechnology Corp, Victoria, Canada), actin (Sigma Chemical Co., St. Louis, Mo.) and Cox II (Molecular Probes, Eugene, Oreg.). Immunoreactive bands were visualized using ECL detection system (Amersham, Pharmacia Biotech, Arlington Heights, Ill.) and signals were developed after exposure to X-ray film (X-Omat films, Eastman Kodak Company, Rochester, N.Y.).\n(§5) For separation of mitochondrial and cytosolic fractions, cells were trypsinized, centrifuged at 600 g for 10 min at 4° C., washed twice in ice-cold PBS and re-suspended in buffer A (20 mM HEPES-KOH, pH 7.2, 10 mM KCl, 1.5 mM MgC12, 1 mM sodium-EDTA, 1 mM sodium-EGTA, 250 mM sucrose and protease inhibitor cocktail). Cells were homogenized on ice with a glass Dounce homogenizer (30 strokes) and were centrifuged at 750 g for 5 min at 4° C. The supernatant was centrifuged for 15 min at 10,000 g at 4° C. to pellet mitochondria, which was washed and resuspended in lysis buffer. The supernatant was centrifuged at 100,000 g for 60 min at 4° C. and S-100 cytosol was collected. […]"}, "PC3Neo cells": {"tested_on": "PC3Neo cells", "assay": "Western blotting of death receptors, caspases, Bid, NFκB, XIAP", "type": "cell-based", "method": "as §1, §2, §3, §4, §5"}, "[3]": {"conditions": "400 ng/ml TRAIL, by 2 hr, FIG. 2C"}}}
{"molecule": "CC#C[C@]1(O)CC[C@H]2[C@@H]3CCC4=CC(=O)CCC4=C3[C@@H](c3ccc(N(C)C)cc3)C[C@@]21C", "note": "[Mifepristone]", "values": [{"measurement": "ability to induce apoptosis in prostate cancer cells (Sridhar et al., 2001)", "setting": "prostate cancer cells", "value": "marginal ability to induce apoptosis"}, {"measurement": "induction of tBid (Sridhar et al., 2001)", "setting": "LNCaP cells", "value": "weakly induced"}]}
{"molecule": "B1", "values": [{"measurement": "phosphorylated Akt", "setting": "LNCaP C4-2 cells", "value": "slightly decreased phosphorylated Akt"}, {"measurement": "apoptotic response at 200 ng/ml", "setting": "PC3AR cells [1]; 200 ng/ml TRAIL", "value": "lower response"}, {"measurement": "apoptosis", "setting": "PC3AR cells [1]; 400 ng/ml TRAIL, by 20 hr, FIG. 1E", "value": "~41", "unit": "%"}, {"measurement": "apoptosis at higher dose", "setting": "PC3AR cells [1]; 600 ng/ml TRAIL", "value": "did not significantly increase apoptosis"}, {"measurement": "increase in expression of DR5", "setting": "PC3AR cells [2]; [3]", "value": "~5", "unit": "fold"}, {"measurement": "increase in expression of DR5 (peak)", "setting": "PC3AR cells [2]; 400 ng/ml TRAIL, by 16 hr, FIG. 2C", "value": "~8", "unit": "fold"}, {"measurement": "DcR2 expression", "setting": "PC3AR cells [2]; TRAIL treatment", "value": "did not significantly alter DcR2 expression"}, {"measurement": "DR4 levels", "setting": "PC3AR cells [2]; TRAIL-treated", "value": "increased"}, {"measurement": "cleaved caspase-9", "setting": "PC3AR cells [2]; by 4 hr, lasted until 16 hr", "value": "significant levels of cleaved caspase-9 were detected"}, {"measurement": "tBid in mitochondria", "setting": "PC3AR cells [2]; mitochondrial fraction, not shown", "value": "translocated into mitochondria within 2 hours"}, {"measurement": "XIAP levels", "setting": "PC3AR cells [2]; not shown", "value": "did not alter XIAP levels significantly"}, {"measurement": "cleaved caspase-3 (p17)", "setting": "PC3AR cells [2]; not shown", "value": "present in both cell lines as early as 2 hr"}, {"measurement": "expression of NFκB", "setting": "PC3AR cells [2]; not shown", "value": "increased the expression of NFκB levels"}, {"measurement": "mature p12 caspase-3 product", "setting": "PC3AR cells [2]; not shown", "value": "noted only in PC3AR"}, {"measurement": "tBid expression", "setting": "PC3AR cells [2]; not shown", "value": "detected up to 8 hr of treatment"}, {"measurement": "cleavage of procaspase-8", "setting": "PC3AR cells [2]; within 2 hr, not shown", "value": "induced cleavage of procaspase-8"}, {"measurement": "activated caspase-9", "setting": "PC3Neo cells", "value": "not detected"}, {"measurement": "increase in expression of DR5", "setting": "PC3Neo cells; [3]", "value": "~2", "unit": "fold"}, {"measurement": "DcR2 expression", "setting": "PC3Neo cells; TRAIL treatment", "value": "did not significantly alter DcR2 expression"}, {"measurement": "DR4 levels", "setting": "PC3Neo cells; TRAIL-treated", "value": "did not show significant changes"}, {"measurement": "tBid expression", "setting": "PC3Neo cells; by 4 hr of TRAIL treatment, not shown", "value": "little tBid was present"}, {"measurement": "tBid in mitochondria", "setting": "PC3Neo cells; mitochondrial fraction, highest level by 2 hr, not shown", "value": "significantly lower than that seen in PC3AR cells"}, {"measurement": "XIAP levels", "setting": "PC3Neo cells; not shown", "value": "did not alter XIAP levels significantly"}, {"measurement": "cleaved caspase-3 (p17)", "setting": "PC3Neo cells; not shown", "value": "present in both cell lines as early as 2 hr"}, {"measurement": "expression of NFκB", "setting": "PC3Neo cells; not shown", "value": "increased the expression of NFκB levels"}, {"measurement": "mature p12 caspase-3 product", "setting": "PC3Neo cells; not shown", "value": "noted only in PC3AR"}, {"measurement": "cleavage of procaspase-8", "setting": "PC3Neo cells; within 2 hr, not shown", "value": "induced cleavage of procaspase-8"}]}
